What was measured:
[1] = biological target: N-terminal domain of Chlamydomonas reinhardtii BBS1 (residues 1–425) (Chlamydomonas reinhardtii); test: ITC
[2] = biological target: N-terminal domain of Homo sapiens BBS1 with the patient mutation E234K (Homo sapiens) (UniProt Q8NFJ9); test: ITC
Chain of UniProt Q8NFJ9 (Q8NFJ9 1-417 E234K): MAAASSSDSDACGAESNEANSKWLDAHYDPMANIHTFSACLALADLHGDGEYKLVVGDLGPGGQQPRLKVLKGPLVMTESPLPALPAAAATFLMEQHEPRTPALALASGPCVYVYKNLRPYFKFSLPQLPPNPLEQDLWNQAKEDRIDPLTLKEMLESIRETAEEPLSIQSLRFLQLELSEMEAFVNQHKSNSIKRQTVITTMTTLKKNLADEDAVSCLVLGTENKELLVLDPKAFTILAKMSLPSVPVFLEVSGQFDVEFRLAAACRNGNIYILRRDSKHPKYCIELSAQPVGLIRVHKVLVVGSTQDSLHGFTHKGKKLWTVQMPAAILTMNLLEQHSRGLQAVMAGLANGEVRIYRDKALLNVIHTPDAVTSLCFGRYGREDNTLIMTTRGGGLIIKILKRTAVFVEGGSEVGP

Molecule	Kd [1] [nM]	stoichiometry N [1]	Kd [2] [nM]
Chlamydomonas reinhardtii ARL6ΔN (residues 1–15 deleted), GTP-bound (domain or fragment)	350	1	
untagged Homo sapiens ARL6 Q73L ΔN (domain or fragment) KEVHVLCLGLDNSGKTTIINKLKPSNAQSQNILPTIGFSIEKFKSSSLSFTVFDMSGLGRYRNLWEHYYKEGQAIIFVIDSSDRLRMVVAKEELDTLLNHPDIKHRRIPILFFANKMDLRDAVTSVKVSQLLCLENIKDKPWHICASDAIKGEGLQEGVDWLQDQIQTVKT			350
